# From patent publication US9907853B2, “Approach to treatment of hyperglycemia using a nanoparticle encapsulated peptide” (University of Rochester, priority 2016, dated 2018)
# Residues, ends and D or L forms follow the SMILES beside them. No end group written: not given here. *: point of attachment. Myristoyl = CCCCCCCCCCCCCC(=O)*
# How the values were obtained:
# [1] = biological target: T1, IRK (insulin receptor β-subunit) (Homo sapiens, UniProt P06213); assay: IRK autophosphorylation in vitro ([32P]-ATP); format: biochemical; conditions: 20 μM peptide
# T1 construct: Insulin receptor β-subunit (IRK); purchased Enzo Life Sciences (Farmingdale, N.Y.)
# Procedure: (§1) FIG. 4A depicts P2 stimulate IRK autophosphorylation in vitro. IRK was incubated in vitro with 20 μM of peptide P2 (KYCCSRK (SEQ ID NO: 2)), peptide a (KKRILHC (SEQ ID NO: 5)) or peptide b (KRNRYLSF (SEQ ID NO: 6)) and [^32P]-ATP. The [^32P] incorporation was quantified. FIG. 4B depicts P2 stimulate IRK kinase activity in vitro; identification of IRK inhibitory peptide. A similar assay was performed as in FIG. 4A, except that the IRK peptide substrate was included. FIG. 4C depicts P2 is both a substrate and activator of IRK kinase activity in vitro. Assays using sequence variant (P2Y-F; KFCCSRK (SEQ ID NO: 9)) of P2 were performed as in FIG. 4B. FIG. 4D depicts P2 stimulates IRK kinase activity in the cell; peptide “a” is an inhibitor. […] The activity as measured in four livers of P2 injected and four control mice is shown.
# (§2) Purified IRK was assayed as previously (Lerner-Marmarosh et al., 2005, PNAS 102:7109-14), using 300 μM IRS-1 Y608 peptide substrate. IRK autophosphorylation was determined as described earlier (Gibbs et al., 2012, J Biol Chem 287:1066-79). hBVR-based peptides (20 μM) were added as activators or inhibitors. […] Incorporation of ^32P was determined by liquid scintillation counting. […] Immunoprecipitates bound to protein A/G-agarose were washed in lysis buffer, followed by IRK assay buffer, and kinase activity was measured as before (Lerner-Marmarosh et al., 2005, PNAS 102:7109-14). […]
# Akt1 = assay: Akt kinase activity immunoprecipitated from HEK cells, Crosstide substrate; format: cell-based; conditions: genistein 50 μM added 30 minutes prior to peptide or insulin
# Procedure: Cells were serum starved overnight, and treated with myristoylated peptides and insulin as in FIG. 5A. Genistein (50 μM) was added to cells 30 minutes prior to treatment with peptide or insulin. Akt1 was immunoprecipitated from the lysates and kinase activity was measured using Crosstide as substrate.
# Thus, Akt kinase activity was measured in cells loaded with either P2 or the scrambled P2 peptide, P2sc. Cell lysates were immunoprecipitated with anti-Akt antibody and immunoprecipitates were examined for phosphorylation of crosstide, an Akt specific substrate.
# [2] = biological target: T1, IRK (insulin receptor β-subunit); assay: IRK kinase activity in vitro towards IRS peptide substrate; format: biochemical; conditions: 20 μM peptide
# Procedure: as §1, §2
# IRK [3] = biological target: T2, IRK (Homo sapiens, UniProt P06213); assay: IRK kinase activity immunoprecipitated from peptide-treated HEK cells; format: cell-based; parameters: IRK was immunoprecipitated from cell lysates and assayed using the IRS peptide as substrate; endogenous in cells; host or cells: HEK293; conditions: 40 μM myristoylated peptide, 15 minutes
# Procedure: as §1, §2
# [4] = system: human skeletal muscle (HSKM) cells; assay: 3H-deoxyglucose uptake in human skeletal muscle cells; format: cell-based; conditions: 2 hours treatment, 20 μM peptide (insulin added with 3H-deoxyglucose)
# Procedure: Insulin, when used, was added at the same time as 3H-deoxyglucose. * P<0.05, ** P<0.01. […] HSKM cells were starved overnight as in described in FIG. 2A. […] Glucose uptake was measured as in A. […] Treatment with peptide nanoparticles was for 1 h. Glucose uptake was measured as described in FIG. 2A. Cultures of HEK293 were maintained in DMEM with 10% FBS. Cells were starved overnight in medium with 0.1% FBS. When used, insulin was added to serum-starved cultures at 100 nM. Human skeletal muscle cells were maintained in 1:1 DMEM:F12 medium containing 15% FBS. […] Cells were washed 3 times with cold PBS and solubilized in 150 μl 50 mM NaOH. Radioactivity was measured and normalized to protein concentration. Assessments were made in triplicate and experiments were repeated three times.
# HepG2 cells = assay: 3H-deoxyglucose uptake in HepG2 cells; format: cell-based; conditions: starved overnight, 1 h treatment
# Procedure: FIG. 2A depicts Nanoparticle delivery of peptide P2 to human skeletal muscle (HSKM) cells stimulates glucose uptake. HSKM cells were grown in low glucose, low FBS medium overnight, then media was replaced with PBS containing 1% BSA for 1 h. Cells were pretreated for 2 hours with 20 μM myristoylated P2 or with 10 or 20 μM P2-nanoparticles, followed by measuring 3H-deoxyglucose uptake over a 15 minutes interval. Insulin, when used, was added at the same time as 3H-deoxyglucose. * P<0.05, ** P<0.01. FIG. 2B depicts a time course of glucose uptake stimulation by P2. HSKM cells were starved overnight as in described in FIG. 2A. Medium was changed to glucose-free DMEM with 1% BSA for 1 hour prior to treatment with 20 μM myr-P2 or with P2-nanoparticles for the indicated times. Glucose uptake was measured as in A. FIG. 2C depicts P2-nanoparticles affect glucose uptake in HepG2 cells. HepG2 cells were starved in low glucose DMEM with 0.1% FBS overnight. Treatment with peptide nanoparticles was for 1 h. Glucose uptake was measured as described in FIG. 2A.
# Glucose uptake was assessed using 2-deoxy 1-[^3H] glucose as described previously (Lerner-Marmarosh et al., 2005, PNAS 102:7109-14), with modification. […] Radioactivity was measured and normalized to protein concentration. […]
# GSK3α = GSK3α phosphorylation in HEK cells (Western blot); format: cell-based; conditions: 40 μM myristoylated peptide 15 minutes or insulin 100 nM
# Procedure: (§3) FIG. 6A depicts Phosphorylation of GSK3α in P2-stimulated cells. Lysates of cells treated as in FIG. 5A were analyzed by Western blot; the blot was probed sequentially with antibodies to phospho-GSK3α-S21 and GSK3α. The signals were quantified by densitometry. FIG. 6B depicts Phosphorylation of GSK3β in P2-stimulated cells. Identical samples to those in FIG. 6A were probed with anti-phospho-GSK3β-S9 antibody, followed by anti-GSK3β.
# HEK cells were incubated in low glucose DMEM with 0.1% FBS, overnight. Cells were treated with 40 μM myristoylated peptide for a total of 15 min; insulin or IGF-1, if used, were included for the final 10 minutes. Cells were harvested, lysed in buffer with triton ×100, and whole cell lysates were analyzed for phosphorylated Akt (T^308, S^473) or GSK3 (α-S^21, β-S^9) species by Western blotting. Each blot was stripped and probed with anti-Akt1 or anti GSK3α or GSK3β antibody, as appropriate, to control for loading.
# GSK3β = GSK3β phosphorylation in HEK cells (Western blot); format: cell-based; conditions: 40 μM myristoylated peptide 15 minutes or insulin 100 nM
# Procedure: as §3, with “anti-GSK3β. […] Cells were harvested, lysed in buffer with triton ×100, and whole cell lysates were analyzed for phosphorylated Akt (T^308, S^473) or GSK3 (α-S^21, β-S^9) species by Western blotting. Each blot was stripped and probed with anti-Akt1 or anti GSK3α or GSK3β antibody, as appropriate, to control for loading.” for “anti-GSK3β.”
# IRK [5] = biological target: T2, IRK; conditions: cited from earlier work
compound,measurement,setting,value
"myr-KRNRYLSF (SEQ ID NO: 6) (Myristoyl-KRNRYLSF) [peptide (b), BVR based peptide]",IRK autophosphorylation ([32P] incorporation),[1],did not lead to increased [^32P] incorporation
O=c1c(-c2ccc(O)cc2)coc2cc(O)cc(O)c12 [genistein],Akt activation by either insulin or P2,Akt1,prevented Akt activation
KFCCSRK (SEQ ID NO: 9) [P2Y-F],effect on IRK kinase activity / substrate phosphorylation,[2],significant decrease in substrate phosphorylation
"myr-KKRILHC (SEQ ID NO: 5) (Myristoyl-KKRILHC) [peptide (a), BVR based peptide]",IRK autophosphorylation ([32P] incorporation),[1],did not lead to increased [^32P] incorporation
same,effect on IRK kinase activity in the cell,IRK [3],potent inhibitor of the kinase
insulin,glucose uptake,[4],stimulated glucose uptake to about the same extent
same,glucose uptake,HepG2 cells,more robust response
same,phosphorylation of GSK3α at S21,GSK3α,enhanced phosphorylation
same,phosphorylation of GSK3β at S9,GSK3β,enhanced phosphorylation
"CCCCCCCCCCCCCC(=O)N[C@@H](CCCCN)C(=O)N[C@@H](Cc1ccc(O)cc1)C(=O)N[C@@H](CS)C(=O)N[C@@H](CS)C(=O)N[C@@H](CO)C(=O)N[C@@H](CCCNC(=N)N)C(=O)N[C@@H](CCCCN)C(=O)O [P2, myr-KYCCSRK (SEQ ID NO: 2)] (Myristoyl-KYCCSRK-OH; N-terminus and C-terminus assumed)",Km of the kinase,IRK [5],without changing Km
